Consider 5 molecules from US7700727B2, “Compositions and kits for detecting pathogen infection” (Biokit, S.A., priority 2003, dated 2010).

Where only a bound is given, the exact number is not on record here.

The target in data set [1] is T1, lysozyme (Homo sapiens, UniProt P61626).
T1 sequence (P61626 19-148): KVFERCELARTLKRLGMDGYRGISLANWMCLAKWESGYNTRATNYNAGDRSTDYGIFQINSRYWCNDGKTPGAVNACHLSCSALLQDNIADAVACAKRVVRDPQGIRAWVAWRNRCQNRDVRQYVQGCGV
Briefly: Lysozyme binding assay on spotted β-APP fragments with POD-labeled human lysozyme. Particulars: 10 μg protein spotted; POD-huLYS diluted 1/1000. The procedure: To test whether the β-APP protein binds huLYS, we performed lysozyme binding assays using purified, recombinant forms of β-APP. Both sAPPα (product number: S9564) and sAPPα (302-612) (product number: S8065) were purchased from Sigma-Aldrich (Tres cantos, Madrid, Spain). 10 μg of each protein was spotted onto a Nytran membrane (Scleicher & Schuiell, Dassel, Germany). Non-specific adsorption sites were blocked by incubation for one hour in TBST-milk. After three washes with TBST, the membrane was incubated for one hour with horse radish peroxidase (POD)-labeled human lysozyme diluted 1/1000 in TBST-milk. Next, the membrane was washed three times, for 5 minutes each wash, with TBST. Staining was performed by adding 5 ml of POD chromogenic substrate (TMB, product number: T0565, Sigma). […] Moreover, the β-APP/huLYS protein complex likely serves as a diagnostic marker of Alzheimer's disease.

The test system of data set [2] is Micrococcus lysodeikticus. Particulars: pH 6.24, 25° C., Micrococcus lysodeikticus suspension; cited from earlier work.
Data set [3] concerns the target T2, chicken lysozyme (Gallus gallus, UniProt P00698). Kind of data set: Lysozyme inhibition assay (EnzCheck, fluorescein-labeled Micrococcus lysodeikticus). It is filed as biochemical. The method, then:
(§1) To test this hypothesis, the antibacterial activity of both human and chicken lysozyme, in the presence or absence of GST-Tp17, was assayed using an EnzCheck® lysozyme assay kit (Molecular Probes, Eugene, Oreg.). The assay comprises the use of Fluorescein-labeled Micrococcus lysodeikticus bacterial cells as a fluorescent substrate of lysozyme. In this Gram positive bacterium, the peptidoglycan layer is directly accessible to lysozyme, and has been Fluorescein-labeled such that fluorescence is naturally quenched. Upon lysozyme hydrolysis, quenching is relieved and fluorescein is released in a quantity that is proportional to lysozyme activity. The following experimental protocol was used.
(§2) A typical 100 μl reaction consisted of 25 μl of lysozyme solution (10 units for chicken lysozyme or 50 units for human lysozyme, dissolved in deionized water), 25 μl of the test protein solution and 50 μl of a suspension of fluorescein-labeled Micrococcus lysodeikticus (50 μg/ml). The reaction was incubated for 45 minutes at 37° C. and the fluorescence was measured (λexc.=485 nm; λemi.=520 nm) using a fluorescence multi-well plate reader model FLx800 (Bio TEK instruments, Winoosky, Vt.) equipped with KC junior data acquisition software (Bio TEK Instruments, Winoosky, Vt.). Each experimental point was expressed as the mean and standard deviation corresponding to the reading of three independent wells. Wells containing 50 μl of deoinized water and 50 μl of Fluorescein-labeled Micrococcus lysodeikticus suspension were used as a blank. Two fold serial dilutions of test protein were used to vary the concentration of the test protein from 83.5 to 1.3 μg/well.

For data set [4], the target named is T1, lysozyme. Described as above. It is filed as biochemical. The procedure: as §1, §2
The target in data set [5] is T1, lysozyme. Kind of data set: Far Western blot lysozyme-protein interaction assay. It is filed as binding. Particulars: 1, 5 and 10 μg immobilized lysozyme per lane; washes with 0.05% Tween 20. The method, then:
(§3) In order to test this hypothesis, a Far-Western blot lysozyme-protein interaction assay was performed. The assay is summarized in FIG. 5 and comprises generally the following three steps: (1) immobilization of purified lysozyme onto a membrane; (2) probing of the membrane with a ligand likely to bind directly to the lysozyme; and (3) immunodetection of the bound lysozyme-ligand. A detailed experimental procedure is presented below.
(§4) Purified chicken egg white lysozyme and human breast milk lysozyme were purchased from Sigma-Aldrich (Madrid, Spain). Two series of aliquot fractions containing 1 μg, 5 μg, and 10 μg of purified lysozyme and a protein molecular weight marker (SeeBlue Plus II™, Invitrogen SA, Barcelona, Spain) were separated electrophoretically through a 4-12% SDS-PAGE gel using the conditions recommended by the supplier (Invitrogen). […] The presence of lysozyme immobilized onto the PVDF membrane was assessed by staining for 1 minute with Ponceau S stain (Sigma-Aldrich, Madrid, Spain), and then destained by vigorous washing for 5 minutes with desionized water. The membrane was divided in two, each portion containing a protein ladder and three quantities of chicken or human lysozyme (1 μg, 5 μg and 10 μg per lane). […]

Data set [6] has as its target T2, chicken lysozyme. Described as above. It is filed as binding. Details: Purified chicken egg white lysozyme; purchased Sigma-Aldrich (Madrid, Spain); host or cells: chicken egg white. Particulars: 1, 5 and 10 μg immobilized lysozyme per lane; washes with 0.05% Tween 20. The procedure: as §3, §4
Data set [7] relates to anti-T. pallidum antibodies in human sera. Kind of data set: Syphilis ELISA (Bioelisa, second and third generation format) with added lysozyme. The text has this:
Syphilis screening is routinely performed using enzyme-linked immunosorbent assays (ELISA) kits. These kits detect the binding of anti-syphilis antibodies to T. pallidum antigens immobilized in the wells of a microtiter plate. Detection of the binding of anti-syphilis antibodies to the plate is normally carried out by means of either an enzyme-labeled antiserum directed against human Fc antibody chains (second generation kit) or an enzyme-labeled T. pallidum antigen (third generation kit).
All the reagents used in this study are provided by the commercial Bioelisa Syphilis 3.0 detection kit (Biokit S.A., Lliça d'Amunt, Spain). The protocol used is that recommended in the package insert of the kit. Briefly, serum or plasma samples are added to the wells of a microtiter plate. If antibodies specific for T. pallidum are present in the sample, they form stable complexes with the antigens on the well. After washing to remove the unbound material, a rabbit conjugate anti-human IgG and anti-human IgM labelled with horseradish peroxidase is added and, if the antigen/antibody complex is present, the conjugate binds to the complex. After a second wash, an enzyme substrate solution containing a chromogen is added. This solution develops a blue color if the sample is positive. The blue color changes to yellow after blocking the reaction with sulphuric acid. […]
(In general: In an ELISA, binding on a coated surface is turned into a signal by an enzyme label.)

The next data set deals with GST-Tp17 or Tp17-HIS. Kind of data set: Antibacterial activity of lysozymes with or without Tp17 (EnzCheck). It is filed as biochemical, Treponema pallidum. Particulars: 1 unit human lysozyme or 230 units rLysozyme; 10 μg GST-Tp17 or Tp17-HIS. The text has this:
In that context, we compared the antibacterial activity of human lysozyme (Ventria Bioscience, Sacramento, Calif., USA) and rLysozyme™ using the EnzCheck Lysozyme assay (E-22013; Molecular Probes, Eugene, Oreg.). We first determined that under the manufacturer's prescribed assay conditions, 1 unit of human lysozyme produced the same intensity of fluorescence as 230 units of rLysozyme™. Next, we measured the fluorescence intensity of either 1 unit of human lysozyme or 230 units of rLysozyme™, in the presence or absence of 10 μg of either GST-Tp17 or Tp17-HIS. […] As a consequence, rLysozyme™ represents a novel and promising antimicrobial drug that could eventually substitute for chicken lysozyme in various therapeutic preparations intended for human and animal use. Additionally, it can be used as an antiseptic and/or as a food preservative.

The mark [8] stands for this setting: test protein 83.5 to 1.3 μg/well.

T2 sequence (P00698 19-147): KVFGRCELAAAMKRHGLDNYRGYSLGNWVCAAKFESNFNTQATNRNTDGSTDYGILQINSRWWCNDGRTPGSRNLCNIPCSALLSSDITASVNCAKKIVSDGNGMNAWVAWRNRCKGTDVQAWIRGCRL
Sequence of GST-Tp17 or Tp17-HIS (P29722 23-156 limits assumed): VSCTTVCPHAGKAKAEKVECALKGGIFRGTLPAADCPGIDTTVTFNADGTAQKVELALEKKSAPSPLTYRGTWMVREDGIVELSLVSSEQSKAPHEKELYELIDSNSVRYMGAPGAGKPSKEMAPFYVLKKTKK

With “sAPPα: longer recombinant fragment of β-APP derived from the APP695 isoform (Sigma S9564)”, the “binding of POD-labeled human lysozyme (huLYS)” value with lysozyme [1] is on record as “bound”.
Turning to “recombinant human transgenic rice lysozyme: purified recombinant human lysozyme from transgenic rice (159-53LZ-90P; Ventria Bioscience)”, the specific activity in data set [2] is 187,000 units/mg protein.
As to “GST-Tp17: recombinant fusion of glutathione S-transferase and Treponema pallidum 17 kDa antigen Tp17 (SEQ ID NO:29)”, the “inhibition of acetyl muramidase activity of chicken lysozyme” value with chicken lysozyme [3] (as little as 1.3 μg/well, 10 units chicken lysozyme) is > 85%. Moreover, the “inhibition of acetyl muramidase activity of human lysozyme” value with lysozyme [4] (as little as 1.3 μg/well, 50 units human lysozyme) is reported as > 85%. Further, the “binding to human lysozyme” value in the data set with lysozyme [5] is given as “detected binding”. The “binding to chicken lysozyme” value with chicken lysozyme [6] is reported as “detected binding”.

B1: GST-Tp47: control protein, GST fusion of T. pallidum Tp47 antigen (protein)
chain: CGSSHHETHYGYATLSYADYWAGELGQSRDVLLAGNAEADRAGDLDAGMFDAVSRATHGHGAFRQQFQYAVEVLGEKVLSKQETEDSRGRKKWEYETDPSVTKMVRASASFQDLGEDGEIKFEAVEGAVALADRASSFMVDSEEYKITNVKVHGMKFVPVAVPHELKGIAKEKFHFVEDSRVTENTNGLKTMLTEDSFSARKVSSMESPHDLVVDTVGTGYHSRFGSDAEASVMLKRADGSELSHREFIDYVMNFNTVRYDYYGDDASYTNLMASYGTKHSADSWWKTGRVPRISCGINYGFDRFKGSGPGYYRLTLIANGYRDVVADVRFLPKYEGNIDIGLKGKVLTIGGADAETLMDAAVDVFADGQPKLVSDQAVSLGQNVLSADFTPGTEYTVEVRFKEFGSVRAKVVAQ
modifications: left off: a dimerising Fc or GST
notes: control protein, GST fusion of T. pallidum Tp47 antigen
B1: the “inhibitory effect on chicken lysozyme acetyl muramidase activity (in words)” value with chicken lysozyme [3] (setting [8]) is “did not exert any inhibitory effect”. In addition, the “inhibitory effect on human lysozyme acetyl muramidase activity (in words)” value with lysozyme [4] (setting [8]) is on record as “did not exert any inhibitory effect”. The “binding to human lysozyme” value with lysozyme [5] is given as “No signal was detected”. The “binding to chicken lysozyme” value with chicken lysozyme [6] was “No signal was detected”.

B2: human lysozyme: human lysozyme (NP_000230); breast milk-derived in Example 8, recombinant (Ventria) in Examples 10 and 16 (protein, listed as Homo sapiens)
chain: KVFERCELARTLKRLGMDGYRGISLANWMCLAKWESGYNTRATNYNAGDRSTDYGIFQINSRYWCNDGKTPGAVNACHLSCSALLQDNIADAVACAKRVVRDPQGIRAWVAWRNRCQNRDVRQYVQGCGV
Turning to B2, the “increase in signal intensity” value is given as “about 20%” in data set [7] (second generation format, lysozyme added to the plate at 2.86 μg/ml, syphilis-positive human sera); “about 200%” in data set [7] (third generation format, lysozyme in sample dilution buffer (10.8 μg/ml) and conjugate dilution buffer (1.08 μg/ml), 3 out of 4 sera). Further, the “susceptibility of antibacterial activity to inhibition by GST-Tp17 or Tp17-HIS” value in the data set on GST-Tp17 or Tp17-HIS is “strongly inhibited”.
